Data on 1 substance can be found in publication PMC12452654.

In test [1] the target is HtpG from Synechococcus elongatus PCC 7942 (Synechococcus elongatus PCC 7942). Kind of test: AUC; sedimentation velocity, 45,000 rpm, 20 °C, 4 µM seHtpG, 40 mM HEPES-KOH pH 7.5, 150 mM KCl, 1 mM β-mercaptoethanol, absorbance at 280 nm.
Test [2] has the same target. Kind of test: SEC; Superdex 200 16/60, 40 mM HEPES-KOH pH 7.5, 150 mM KCl, 0.5 mM TCEP, 0.5 mL/min; peak at 65 mL, close to the 158 kDa IgG standard. (Size exclusion chromatography separates by hydrodynamic size, large species first.)

As for “HtpG from Synechococcus elongatus PCC 7942 (natural protein)”, the stoichiometry N in test [1] and in test [2] was 2 throughout.
